Experimental findings from paper PMC4180972 are described below.

The test has as its target Flag-TIN2 (human) (UniProt Q9BSI4). In words: co-IP.
UniProt Q9BSI4, sequence (Q9BSI4 whole entry): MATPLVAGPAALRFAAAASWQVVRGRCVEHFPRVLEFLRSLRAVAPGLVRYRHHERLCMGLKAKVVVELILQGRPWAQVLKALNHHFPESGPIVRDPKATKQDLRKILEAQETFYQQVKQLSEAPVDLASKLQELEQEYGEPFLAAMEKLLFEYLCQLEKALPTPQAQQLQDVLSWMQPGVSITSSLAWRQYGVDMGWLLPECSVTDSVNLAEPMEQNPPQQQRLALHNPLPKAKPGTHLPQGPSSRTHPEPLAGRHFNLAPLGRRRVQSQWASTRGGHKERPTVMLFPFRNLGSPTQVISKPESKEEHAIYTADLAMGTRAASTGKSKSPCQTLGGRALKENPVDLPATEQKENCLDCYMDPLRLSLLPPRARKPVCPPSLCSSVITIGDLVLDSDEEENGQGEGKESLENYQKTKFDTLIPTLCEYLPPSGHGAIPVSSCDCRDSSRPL

In the case of “Flag-tagged TPP1-P491T (from UniProt Q96AP0-3 1-458) (natural protein)”, the fold reduction in TIN2 association against wild-type TPP1 was 2 fold.
